The source of these data is patent publication US20190248877A1 (Hoffmann-La Roche, published 2019).

Common to all, as to experiment: SPR Biacore T200, biotinylated TnC on SA chip, Fab as analyte, 1:1 fit
(Surface plasmon resonance follows binding to a sensor surface in real time, without labels.)

Assay [1] has as its target T1, muTNC (recombinant murine TnC antigen) (mouse, biotin on the C-terminal avi-tag where used biotinylated (Example 5)).
T1 construct: GST may have been cleaved off by thrombin; The text says this construct lacks the C domain; also called mouse TnC
T1 chain: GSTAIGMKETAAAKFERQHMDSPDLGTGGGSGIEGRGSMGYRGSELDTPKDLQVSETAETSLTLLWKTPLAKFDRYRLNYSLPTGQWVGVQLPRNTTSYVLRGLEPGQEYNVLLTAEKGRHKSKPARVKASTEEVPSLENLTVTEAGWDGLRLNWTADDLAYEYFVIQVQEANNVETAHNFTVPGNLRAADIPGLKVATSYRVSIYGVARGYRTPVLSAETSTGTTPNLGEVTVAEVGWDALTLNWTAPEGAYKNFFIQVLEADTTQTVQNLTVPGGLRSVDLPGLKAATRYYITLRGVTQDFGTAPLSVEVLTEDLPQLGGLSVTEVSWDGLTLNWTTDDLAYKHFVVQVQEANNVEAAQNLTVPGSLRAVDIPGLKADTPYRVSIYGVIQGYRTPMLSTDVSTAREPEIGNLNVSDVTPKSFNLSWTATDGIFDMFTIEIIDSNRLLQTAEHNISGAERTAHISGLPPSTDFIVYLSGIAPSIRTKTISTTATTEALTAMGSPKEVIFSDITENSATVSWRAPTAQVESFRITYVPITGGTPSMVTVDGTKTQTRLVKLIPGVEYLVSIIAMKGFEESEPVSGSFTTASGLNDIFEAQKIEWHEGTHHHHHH
How it is done:
(§1) Binding of the anti-TnC IgGs 18D4, 11C7 and the Fab fragment of anti-TnC 18D4 to human, murine and cynomolgus TnC (antigens according to Table 4) was assessed by surface plasmon resonance (SPR). All SPR experiments were performed on a Biacore T200 at 25° C. with HBS-EP as running buffer (0.01 M HEPES pH 7.4, 0.15 M NaCl, 3 mM EDTA, 0.005% Surfactant P20, Biacore, Freiburg/Germany).
(§2) A 20 μg/ml stock solution of biotinylated human, murine or cynomolgus TnC was injected on a SA chip, with the aim to immobilize up to 100 RU using the immobilization wizard function.
(§3) An additional dissociation step of 1800s was performed for the highest concentration of IgG. After each step the surface was regenerated following two sequential injections of 10 mM glycine pH2.1 for 60 s. Bulk refractive index differences were corrected for by subtracting the response obtained in a reference flow cell without TNC. Affinity and avidity were calculated using the Langmuir 1:1 kinetic model. However, as the KD for the 1:1 fitting of bivalent interactions is an apparent value only, it should only be used for comparisons.

The target of assay [2] is T2, cynoTNC (recombinant cynomolgus TnC antigen) (cynomolgus, biotin on the C-terminal avi-tag where used biotinylated (Example 5)).
T2 construct: GST may have been cleaved off by thrombin; The text says this construct lacks the C domain
T2 chain: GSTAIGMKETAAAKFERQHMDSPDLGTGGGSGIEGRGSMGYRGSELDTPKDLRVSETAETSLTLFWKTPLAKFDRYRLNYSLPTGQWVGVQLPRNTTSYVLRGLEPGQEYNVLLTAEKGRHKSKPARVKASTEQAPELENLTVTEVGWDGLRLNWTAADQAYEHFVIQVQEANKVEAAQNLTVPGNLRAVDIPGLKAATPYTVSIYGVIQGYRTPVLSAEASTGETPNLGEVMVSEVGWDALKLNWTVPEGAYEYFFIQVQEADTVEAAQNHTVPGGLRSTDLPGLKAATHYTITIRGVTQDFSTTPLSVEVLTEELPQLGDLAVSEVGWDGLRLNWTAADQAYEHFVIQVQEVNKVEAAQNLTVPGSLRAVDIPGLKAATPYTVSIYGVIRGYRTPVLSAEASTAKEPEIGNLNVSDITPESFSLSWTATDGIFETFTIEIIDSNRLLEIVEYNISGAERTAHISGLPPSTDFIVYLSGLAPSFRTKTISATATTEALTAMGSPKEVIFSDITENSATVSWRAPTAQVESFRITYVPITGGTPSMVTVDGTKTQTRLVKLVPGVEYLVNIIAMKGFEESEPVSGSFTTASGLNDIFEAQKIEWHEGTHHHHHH
How it is done: as §1, §2, §3

Assay [3] concerns the target T3, huTNC (recombinant human TnC antigen) (human, UniProt P24821 984-1798, biotin on the C-terminal avi-tag where used biotinylated (Examples 5 and 10)).
T3 sequence: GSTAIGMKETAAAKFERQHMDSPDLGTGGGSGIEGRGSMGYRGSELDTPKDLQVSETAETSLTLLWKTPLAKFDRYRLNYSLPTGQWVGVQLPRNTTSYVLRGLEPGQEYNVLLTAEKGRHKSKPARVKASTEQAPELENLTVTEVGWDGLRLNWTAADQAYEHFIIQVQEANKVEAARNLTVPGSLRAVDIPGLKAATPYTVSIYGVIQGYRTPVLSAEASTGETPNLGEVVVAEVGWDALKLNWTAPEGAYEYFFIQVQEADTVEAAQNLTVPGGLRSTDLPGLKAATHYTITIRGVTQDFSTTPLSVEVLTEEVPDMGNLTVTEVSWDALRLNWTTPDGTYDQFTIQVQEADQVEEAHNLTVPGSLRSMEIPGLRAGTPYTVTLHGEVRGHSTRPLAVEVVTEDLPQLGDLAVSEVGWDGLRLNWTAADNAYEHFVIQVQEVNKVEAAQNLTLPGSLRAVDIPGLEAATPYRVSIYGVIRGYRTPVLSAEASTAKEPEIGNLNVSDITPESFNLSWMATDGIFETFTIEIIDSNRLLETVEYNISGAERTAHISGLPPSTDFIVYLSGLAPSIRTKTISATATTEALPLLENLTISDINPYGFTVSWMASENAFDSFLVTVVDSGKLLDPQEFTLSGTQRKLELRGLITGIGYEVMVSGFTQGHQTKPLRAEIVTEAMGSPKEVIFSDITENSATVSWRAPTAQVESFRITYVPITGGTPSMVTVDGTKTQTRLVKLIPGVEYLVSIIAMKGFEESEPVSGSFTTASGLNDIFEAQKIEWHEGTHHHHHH
As to the method:
as §1, §2, §3

B1: anti-TnC clone 18D4 Fab fragment (Fab, V domains shown)
VH: QVQLVQSGAEVKKPGSSVKVSCKASGGTFSSYAISWVRQAPGQGLEWMGGIIPIFGTANYAQKFQGRVTITADKSTSTAYMELSSLRSEDTAVYYCAKGNFYGGLDYWGQGTTVTVSS
VL: DIQMTQSPSTLSASVGDRVTITCRASQSISSWLAWYQQKPGKAPKLLIYDASSLESGVPSRFSGSGSGTEFTLTISSLQPDDFATYYCQQNKKFPSGTFGQGTKVEIK
As usually defined, the Kd is a measure of binding affinity in units of concentration. B1: the Kd in assay [1] came to 6.5 nM; in assay [2], 6.69 nM; in assay [3], 1.44 nM.
